The target of assay [1] is T1, human galectin-2, natively expressed (LS174T cells; human colon biopsy sections) (human, UniProt P05162 1-132).
T1 construct: Cytoplasmic protein in fixed, methanol-permeabilized LS174T cells, and native protein in frozen colon sections; also called natively expressed galectin-2 antigen
T1 sequence: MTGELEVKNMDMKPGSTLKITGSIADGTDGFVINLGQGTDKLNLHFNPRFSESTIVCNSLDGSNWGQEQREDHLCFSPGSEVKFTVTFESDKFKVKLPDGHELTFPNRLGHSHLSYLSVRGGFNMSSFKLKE
As to the kind of experiment: immunofluorescence of frozen healthy colon sections, biotinylated IgG, streptavidin-alexa 488. As to the method: (§1) Detection of the primary antibody was performed with streptavidin-alexa 488 (Invitrogen). Blood vessels were detected using a mouse anti-human CD31 antibody (eBioscience) followed by detection with an anti-mouse alexa 594 antibody (Invitrogen). Counterstaining for cell nuclei was performed with DAPI (eBioscience).
(§2) (i) Freshly frozen colon biopsy samples from a healthy donor were stained according to already published methods (Pfaffen et al., Eur J Nucl Med Mol Imagin (2010) 37: 1559-65). Briefly, purified biotinylated antibodies in IgG format were added at the final concentration of 2 μg/ml onto the sections. Detection of the primary antibody was performed with streptavidin-alexa 488 (Invitrogen). Blood vessels were detected using a mouse anti-human CD31 antibody (eBioscience) followed by detection with an anti-mouse alexa 594 antibody (Invitrogen). Counterstaining for cell nuclei was performed with DAPI (eBioscience).
(§3) (ii) Freshly frozen colon biopsy samples from a healthy donor were stained according to already published methods (Pfaffen et al., Eur J Nucl Med Mol Imagin (2010) 37: 1559-65). Briefly, purified biotinylated antibodies in IgG format were added at the final concentration of 2 μg/ml onto the sections. […] Blood vessels were detected using a mouse anti-human CD31 antibody (eBioscience) followed by detection with an anti-mouse alexa 594 antibody (Invitrogen). […]

For assay [2], the target named is T2, human cadherin-17, native, in human ulcerative colitis biopsy sections (human, UniProt Q12864 23-832).
T2 construct: Native protein in tissue; also called cognate antigen (of AV17)
T2 sequence: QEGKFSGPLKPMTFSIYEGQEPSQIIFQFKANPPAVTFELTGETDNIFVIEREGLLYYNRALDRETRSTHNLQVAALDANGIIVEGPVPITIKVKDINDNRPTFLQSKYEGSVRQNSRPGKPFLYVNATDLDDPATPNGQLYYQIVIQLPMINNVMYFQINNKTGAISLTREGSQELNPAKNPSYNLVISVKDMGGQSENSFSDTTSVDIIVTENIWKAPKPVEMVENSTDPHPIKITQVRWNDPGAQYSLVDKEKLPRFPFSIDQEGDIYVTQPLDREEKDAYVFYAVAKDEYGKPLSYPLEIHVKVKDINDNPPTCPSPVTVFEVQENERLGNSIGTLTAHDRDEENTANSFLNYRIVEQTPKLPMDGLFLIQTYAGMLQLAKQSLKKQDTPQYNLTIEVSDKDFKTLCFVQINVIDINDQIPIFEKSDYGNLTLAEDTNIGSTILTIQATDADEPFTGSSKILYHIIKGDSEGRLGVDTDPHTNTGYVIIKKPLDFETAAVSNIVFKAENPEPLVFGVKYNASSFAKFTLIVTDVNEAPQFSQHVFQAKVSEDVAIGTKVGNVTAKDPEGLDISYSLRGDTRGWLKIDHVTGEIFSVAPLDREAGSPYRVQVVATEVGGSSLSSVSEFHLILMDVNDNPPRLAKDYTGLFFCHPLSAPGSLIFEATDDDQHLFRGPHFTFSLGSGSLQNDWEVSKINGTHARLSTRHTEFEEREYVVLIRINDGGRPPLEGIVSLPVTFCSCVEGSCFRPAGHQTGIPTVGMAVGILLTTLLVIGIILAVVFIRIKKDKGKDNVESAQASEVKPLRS
As to the kind of experiment: immunofluorescence of frozen human ulcerative colitis sections, human IgG1 format, rabbit anti-human IgG and goat anti-rabbit Alexa 488. As to the method:
Purified antibodies in human IgG1 format were added at the final concentration of 2 μg/ml to the sections. […] A positive control was performed by counterstaining for cell nuclei was performed with DAPI (eBioscience). Sections were mounted with fluorescent mounting medium (DAKO) followed by analysis using an Axioskop2 microscope with a 10× objective (Carl Zeiss AG, Jena, Germany). A stronger intensity signal in the colonic crypts region can be detected in the sections stained with CPR02, AV17 and FF06 when compared to the signal observed with an irrelevant antibody (Negative Control).
Freshly frozen human biopsy samples of Ulcerative Colitis were stained as described in the following lines. In brief, purified antibodies in human IgG1 format were added at the final concentration of 2 μg/ml to the sections. […] Further positive control was performed by counterstaining for cell nuclei was performed with DAPI (eBioscience). Sections were mounted with fluorescent mounting medium (DAKO) followed by analysis using an Axioskop2 microscope with a 10× objective (Carl Zeiss AG, Jena, Germany).

The target of assay [3] is T3, human Agr2, native, in human colon biopsy sections (human, UniProt O95994 21-175).
T3 construct: Native protein in healthy-donor colon and ulcerative colitis sections; also called human Agr2 antigen
T3 sequence: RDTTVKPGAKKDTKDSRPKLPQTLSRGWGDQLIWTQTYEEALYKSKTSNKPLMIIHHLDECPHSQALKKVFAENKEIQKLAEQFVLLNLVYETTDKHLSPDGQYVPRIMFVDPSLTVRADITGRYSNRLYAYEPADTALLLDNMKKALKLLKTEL
Put plainly: immunofluorescence of frozen healthy colon sections, biotinylated IgG, streptavidin-alexa 488. As to the method: as §1, §2, §3

Numbering of substitutions follows the chain as printed.

B1: FF06 in IgG format (antibody, V domains shown)
VH: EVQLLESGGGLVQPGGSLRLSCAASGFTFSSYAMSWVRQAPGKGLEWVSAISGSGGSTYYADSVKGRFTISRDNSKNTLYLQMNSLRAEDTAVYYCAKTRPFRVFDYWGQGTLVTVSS
VL: SSELTQDPAVSVALGQTVRITCQGDSLRSYYASWYQQKPGQAPVLVIYGKNNRPSGIPDRFSGSSSGNTASLTITGAQAEDEADYYCNSSRSRRPAVVFGGGTKLTVLG
notes: also called anti-Galectin-2 (FF06)
On to B1, for which the binding result in assay [1] is “binds”.

B2: AV17 in human IgG1 format (antibody, V domains shown)
VH: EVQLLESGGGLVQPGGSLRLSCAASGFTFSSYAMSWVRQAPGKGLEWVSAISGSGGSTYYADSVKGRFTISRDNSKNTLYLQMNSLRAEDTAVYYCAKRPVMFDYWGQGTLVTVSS
VL: B1 VL with R91L, S92P, R93S, R94P, P95Q, A96V
notes: Human IgG1 format; also called anti-cadherin 17 (AV17)
For the molecule B2, the binding result in assay [2] is given as “binds”.

B3: CPR02 in IgG format (antibody, V domains shown)
VH: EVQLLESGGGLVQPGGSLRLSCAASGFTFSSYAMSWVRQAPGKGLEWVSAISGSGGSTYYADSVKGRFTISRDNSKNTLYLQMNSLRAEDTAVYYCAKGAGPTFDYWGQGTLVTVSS
VL: B1 VL with R91P, S92P, R93T, P95A, A96V
notes: also called anti-Agr2 (CPR02)
Consider B3, for which, in assay [3], the binding result is given as “binds”.

Values taken from patent US20190309060A1 (PHILOGEN S P A, published 2019).
